Here are results for one sequence from PMC12510224.

The data set deals with MDM2(S395D) S395D (UniProt Q00987). Description: RNA co-IP (anti-MDM2 4B2) with RT-qPCR. Conditions: RNA co-IP: 50 mM Tris pH 7.5, 150 mM NaCl, 0.01 mM ZnSO4, 2 mM MgCl2, 0.02 mg/mL yeast tRNA, 0.2 mg/mL BSA, room temperature, pull-down overnight at 4 C.
MDM2(S395D) S395D, sequence (Q00987 whole entry S395D): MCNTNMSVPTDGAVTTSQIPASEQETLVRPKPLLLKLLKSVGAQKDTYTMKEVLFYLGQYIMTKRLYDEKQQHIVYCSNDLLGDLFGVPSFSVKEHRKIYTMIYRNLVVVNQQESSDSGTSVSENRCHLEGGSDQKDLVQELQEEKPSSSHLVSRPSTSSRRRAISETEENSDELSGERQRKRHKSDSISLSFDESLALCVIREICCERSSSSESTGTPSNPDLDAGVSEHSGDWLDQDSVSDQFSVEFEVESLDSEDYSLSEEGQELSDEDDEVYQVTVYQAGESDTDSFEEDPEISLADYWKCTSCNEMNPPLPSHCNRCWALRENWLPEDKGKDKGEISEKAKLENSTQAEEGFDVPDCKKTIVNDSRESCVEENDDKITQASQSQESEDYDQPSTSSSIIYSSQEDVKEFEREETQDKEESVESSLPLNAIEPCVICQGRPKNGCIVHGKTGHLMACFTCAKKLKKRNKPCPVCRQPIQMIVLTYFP

For the sequence “AUGGAGGAGCCGCAGUCAGAUCCUAGCGUCGAGCCCCCUCUGAGUCAGGAAACAUUUUCAGACCUAUGGAAACUACUUCCUGAAAACAACGUUCUGUCCCCCUUGCCGUCCCAAGCAAUGGAUGAUUUGAUGCUGUCCCCGGACGAUAUUGAACAAUGGUUCACUGAAGACCCAGGUCCAGAUGAAGCUCCCAGAAUGCCAGAGGCUGCUCCCCCCGUGGCCCCUGCACCAGCAGCUCCU [p53 mRNA +1 to +240 WT]”, the binding signal (fold increase over no BOX-I oligo) came out at 60.
